Patent US20260151519A1 (AKTIS ONCOLOGY, published 2026)
Bridges are numbered along the chain shown (N, C = ends). Primed or numbered codes have the meaning given here. Where no end group is shown, it is not given here. The star is where a group is joined. Biotin = O=C1N[C@H]2[C@H](CS[C@H]2CCCCC(=O)*)N1; PEG4″ = 4(ethylene glycol)

Target: T1, Human Nectin-4 (human, UniProt Q96NY8 32-349, limits assumed)
T1 construct: Protein immobilised on the SPR chip; also called target protein
T1 sequence: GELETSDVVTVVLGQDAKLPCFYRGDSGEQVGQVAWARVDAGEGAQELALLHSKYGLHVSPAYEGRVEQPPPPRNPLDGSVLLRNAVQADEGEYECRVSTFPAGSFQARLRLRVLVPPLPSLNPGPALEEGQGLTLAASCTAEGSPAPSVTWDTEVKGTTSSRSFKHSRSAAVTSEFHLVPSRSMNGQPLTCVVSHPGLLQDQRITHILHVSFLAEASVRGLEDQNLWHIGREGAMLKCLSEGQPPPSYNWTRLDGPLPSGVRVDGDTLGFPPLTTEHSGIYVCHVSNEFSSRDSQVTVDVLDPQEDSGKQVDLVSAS
Assay: Table 2B (DELFIA or SPR)

{Biotin-PEG4″}-CEYDEEFFTALKRLRGGDICEYIQASFQYLPGLCIEEILDNLGCS-OH (designed binder, disulfide 1-34, 20-44) [C178]
Kd: 1.4 nM

{Biotin-PEG4″}-CEYDEEFFTALARLRGGDICDYIQAKFQYLPGLCIAEILDNLGCS-OH (designed binder, disulfide 1-34, 20-44) [C157]
Kd: 1.1 nM

{Biotin-PEG4″}-CEYDEEFFTALARLRGSDICLYIQAKFQYLPGLCIEEILDNLGCS-OH (designed binder, disulfide 1-34, 20-44) [C156]
Kd: 1.1 nM

{Biotin-PEG4″}-CEYDEEFFTALARLRGGDICYYIQAYFQYLPGLCIEEILDNLGCS-OH (designed binder, disulfide 1-34, 20-44) [C165]
Kd: 4.1 nM

{Biotin-PEG4″}-CEYDEEFFTALARLRGGDICEYIQAKFQYLEGLCIEEILDNLGCS-OH (designed binder, disulfide 1-34, 20-44) [C150]
Kd: 1 nM

{Biotin-PEG4″}-CEYDEEFFTALARLRGGDICYYIQAKFQYLPGECIEEILQNLGCS-OH (designed binder, disulfide 1-34, 20-44) [C142]
Kd: 0.81 nM

Ac-CEYDEEFFTALARLRGGDICYYIQAKFQYLPGLCIEEILDNLGCS (designed binder, disulfide 1-34, 20-44) [C124]
Kd: 1.1 nM

{Biotin-PEG4″}-CEYDEEFFTALARLRGADICYYIQAKFQYLPGDCIEEILDNLGCS (designed binder, disulfide 1-34, 20-44) [C140]
Kd: 1.1 nM

{Biotin-PEG4″}-CEYDEEFFTALARLRGGDICQYIQAKFAYVPGLCIEEILDNLGCS-OH (designed binder, disulfide 1-34, 20-44) [C155]
Kd: 1.1 nM

{Biotin-PEG4″}-CEYDEAFFTALARLRGGDICQYIQAKFQYLPGLCIEEILDNLGCS-OH (designed binder, disulfide 1-34, 20-44) [C151]
Kd: 0.68 nM

{Biotin-PEG4″}-CEYDEEFFTALARLRGADICDYIQAKFQYLPGLCIEEILDNLGCS (designed binder, disulfide 1-34, 20-44) [C147]
Kd: 0.69 nM

{Biotin-PEG4″}-CEYDEEFFTALARLRGGDICYYIQAKFAYLPALCIEEILDNLGCS (designed binder, disulfide 1-34, 20-44) [C154]
Kd: 0.94 nM

{Biotin-PEG4″}-CEYDEEFFTALARLRGGDICYYILAKFQYLPGECIEEILDNLGCS (designed binder, disulfide 1-34, 20-44) [C145]
Kd: 1.3 nM

{Biotin-PEG4″}-CEYDEEFFTALASLRGGDICYYIQAKFQYLPGLCIEEILDNLGCS-OH (designed binder, disulfide 1-34, 20-44) [C161]
Kd: 7.5 nM

Ac-CEYDEEFFTALKRLRGGDICYYIQAKFQYLPKLCIEEILDNLGCS (designed binder, disulfide 1-34, 20-44) [C116]
Kd: 0.78 nM

Ac-CEYDEEFFTALKRLRGGDICYYIQKAFQYLPGLCIEEILDNLGCS (designed binder, disulfide 1-34, 20-44) [C120]
Kd: 2.11 nM

{Biotin-PEG4″}-CEYDEEFFTALARLRGGDICEYIQAKFQYLPGLCIQEILDNLGCS (designed binder, disulfide 1-34, 20-44) [C148]
Kd: 0.82 nM

{Biotin-PEG4″}-CEYDEEFFTALARLRGGDICYYIQAKFQYLPGLCIEEILDNLGCS (designed binder, disulfide 1-34, 20-44) [C127]
Kd: 1.27 nM

{Biotin-PEG4″}-CEYDEEFFTALKRLRGGDICYYIQKAFQYLPGLCIEEILDNLGCS (designed binder, disulfide 1-34, 20-44) [C123]
Kd: 1.43 nM

{Biotin-PEG4″}-CEYDEEFFTALSRLRGGDICYYIQQAFQYLPGLCIEEILDNLGCS (designed binder, disulfide 1-34, 20-44) [C135]
Kd: 5.42 nM

{Biotin-PEG4″}-CEYDGEFFTALARLRGADICEYIQAKFQYYPGLCIEEILDNLGCS-OH (designed binder, disulfide 1-34, 20-44) [C144]
Kd: 3.7 nM

{Biotin-PEG4″}-CEYDEQFFTALKALRGGDICYYIQASFNYLPDLCIEEILDNLGCS (designed binder, disulfide 1-34, 20-44) [C115]
Kd: 6.46 nM

{Biotin-PEG4″}-CEYDEQFFTALARLRGGDICYYILAKFQYLPQLCIEEILDNLGCS (designed binder, disulfide 1-34, 20-44) [C152]
Kd: 0.85 nM

{Biotin-PEG4″}-CEYDGEFFTALARLRGGDICQYIQAKFQYLPGLCIEEILDNLGCS-OH (designed binder, disulfide 1-34, 20-44) [C158]
Kd: 1.1 nM

{Biotin-PEG4″}-CEYDEEFFTALKRLRGGDICYYIQAKFQYLPKLCIEEILDNLGCS (designed binder, disulfide 1-34, 20-44) [C119]
Kd: 0.95 nM

{Biotin-PEG4″}-CDYDEEFFTALARLRGGDICEYIQAKFQYLPGLCIEEILDNLGCS (designed binder, disulfide 1-34, 20-44) [C141]
Kd: 0.64 nM

{Biotin-PEG4″}-CEYDEEFFTALARLRGGDICQYIQAKFQYLPALCIEEILDNLGCS (designed binder, disulfide 1-34, 20-44) [C153]
Kd: 0.56 nM

Ac-CEYDEEFFTALKRLRGGDICYYIQASFQYLPGLCIEEILDNLGCS (designed binder, disulfide 1-34, 20-44) [C108]
Kd: 5.78 nM

{Biotin-PEG4″}-CEYDEEFFTALAQLRGGDICYYIQAKFQYLPGLCIEEILDNLGCS-OH (designed binder, disulfide 1-34, 20-44) [C162]
Kd: 8.8 nM

{Biotin-PEG4″}-CEYDEEFFTALKRLRGGDICYYIQASFQYLPGLCIEEILDNLGCS (designed binder, disulfide 1-34, 20-44) [C111]
Kd: 4.32 nM

{Biotin-PEG4″}-CEYDEQFFTALARLRGGDICEYIQAKFQYLPGLCIEEILDNLGCS (designed binder, disulfide 1-34, 20-44) [C146]
Kd: 0.54 nM
